Legend:
hcGAS WT [1] = molecular target: T1, hcGAS WT (Homo sapiens, UniProt Q8N884 1-522); assay: MST; conditions: EMSA: 50 nM Cy3-DNA, 20 mM Tris-HCl pH 7.5, 150 mM NaCl, 37 C 30 min, 1.5% agarose, MST: 50 nM Cy5-DNA, same buffer, room temperature, MARTFQ: 50 nM cGAS
hcGAS WT [2] = molecular target: T1, hcGAS WT; assay: EMSA; EMSA: 50 nM Cy3-DNA, 20 mM Tris-HCl pH 7.5, 150 mM NaCl, 37 C 30 min, 1.5% agarose; MST: 50 nM Cy5-DNA, same buffer, room temperature; MARTFQ: 50 nM cGAS, DNA titration, 5 min; conditions: protein: recombinant, tags: His (pET-28a, Ni purified), label: 5' Cy3 on F (EMSA)
hcGAS WT [3] = molecular target: T1, hcGAS WT; assay: MARTFQ fluorescence quenching; EMSA: 50 nM Cy3-DNA, 20 mM Tris-HCl pH 7.5, 150 mM NaCl, 37 C 30 min, 1.5% agarose; MST: 50 nM Cy5-DNA, same buffer, room temperature; MARTFQ: 50 nM cGAS, DNA titration, 5 min; conditions: protein: recombinant, tags: His (pET-28a, Ni purified)
[4] = blunt, self-complementary strands

T1 sequence (Q8N884 whole entry): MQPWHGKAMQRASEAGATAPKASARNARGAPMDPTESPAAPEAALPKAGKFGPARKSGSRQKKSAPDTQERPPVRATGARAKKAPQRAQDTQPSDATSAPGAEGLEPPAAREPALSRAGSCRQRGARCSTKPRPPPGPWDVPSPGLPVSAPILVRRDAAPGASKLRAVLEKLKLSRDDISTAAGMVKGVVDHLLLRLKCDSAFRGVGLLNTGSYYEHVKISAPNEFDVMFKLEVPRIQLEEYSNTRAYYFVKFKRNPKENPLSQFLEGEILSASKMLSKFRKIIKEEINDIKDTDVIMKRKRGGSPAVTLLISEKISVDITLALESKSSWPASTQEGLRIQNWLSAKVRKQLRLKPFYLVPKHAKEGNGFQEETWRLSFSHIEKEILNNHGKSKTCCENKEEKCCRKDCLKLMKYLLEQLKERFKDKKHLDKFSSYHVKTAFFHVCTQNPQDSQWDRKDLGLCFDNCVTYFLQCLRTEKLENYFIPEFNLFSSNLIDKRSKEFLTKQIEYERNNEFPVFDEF

## 8-OdG ISD
hcGAS WT [1]; 8-oxo-dG
  Kd: 97.9 nM

## Gap ISD
hcGAS WT [1]; gap
  Kd: 75.8 nM

## Mis ISD
hcGAS WT [1]; mismatch
  Kd: 108 nM

## Ctrl ISD
hcGAS WT [1]
  Kd: 1270 nM

## Nick ISD
hcGAS WT [1]; nick
  Kd: 150 nM

B1: E8 63 bp (dsDNA)
DNA 1: TTTTATTTATCGCCTCCACGGTGCTGCACGTACGCGCTGTTGGCCGTGTTATCTCGAGTTAGT
DNA 2: ACTAACTCGAGATAACACGGCCAACAGCGCGTACGTGCAGCACCGTGGAGGCGATAAATAAAA
hcGAS WT [2]; blunt
  binding result: binds

B2: Gap E8A26 63 bp (dsDNA)
DNA 1: TTTTATTTATCGCCTCCTTTTTTTTTTTTTTTTTTTTTTTTTTCCGTGTTATCTCGAGTTAGT
DNA 2: ACTAACTCGAGATAACACGGAAA
DNA 3: AAAAAAAAAAAAAAAAAAAAAAGGAGGCGATAAATAAAA
modifications: 1 nt gap in R strand
hcGAS WT [2]; gapped duplex, three strands
  binding result: binds

B3: pA:pT 44 bp (dsDNA)
DNA 1: AAAAAAAAAAAAAAAAAAAAAAAAAAAAAAAAAAAAAAAAAAAA
DNA 2: TTTTTTTTTTTTTTTTTTTTTTTTTTTTTTTTTTTTTTTTTTTT
hcGAS WT [3]; blunt
  Kd: 3460 ± 637 nM

B4: pAT 44 bp poly(dA:dT) (dsDNA)
DNA 1: ATATATATATATATATATATATATATATATATATATATATATAT
DNA 2: B4 DNA 1
hcGAS WT [3]; [4]
  Kd: 640 ± 123 nM

B5: Gap pA:pT 44 bp (dsDNA)
DNA 1: B3 DNA 1
DNA 2: TTTTTTTTTTTTTTTTTTTTTT
DNA 3: TTTTTTTTTTTTTTTTTTTTT
modifications: 1 nt gap in dT strand
hcGAS WT [3]; gapped duplex, three strands
  Kd: 190 ± 35.2 nM

B6: pGC 44 bp poly(dG:dC) (dsDNA)
DNA 1: CGCGCGCGCGCGCGCGCGCGCGCGCGCGCGCGCGCGCGCGCGCG
DNA 2: B6 DNA 1
hcGAS WT [3]; [4]
  Kd: 376 ± 78.8 nM
